Experimental data from publication PMC2861611 (Molecular Biology of the Cell, 2010).

Target: T1, GST-PDZK1 tail (human, UniProt Q5T2W1 459-519)
T1 sequence (looked up): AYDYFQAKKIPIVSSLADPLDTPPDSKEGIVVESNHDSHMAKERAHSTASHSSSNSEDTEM
Test: pull-down

B1: EBP50 (1-354) (domain or fragment, UniProt O14745 1-354, looked up)
chain: MSADAAAGAPLPRLCCLEKGPNGYGFHLHGEKGKLGQYIRLVEPGSPAEKAGLLAGDRLVEVNGENVEKETHQQVVSRIRAALNAVRLLVVDPETDEQLQKLGVQVREELLRAQEAPGQAEPPAAAEVQGAGNENEPREADKSHPEQRELRPRLCTMKKGPSGYGFNLHSDKSKPGQFIRSVDPDSPAEASGLRAQDRIVEVNGVCMEGKQHGDVVSAIRAGGDETKLLVVDRETDEFFKKCRVIPSQEHLNGPLPVPFTNGEIQKENSREALAEAALESPRPALVRSASSDTSEELNSQDSPPKQDSTAPSSTSSSDPILDFNISLAMAKERAHQKRSSKRAPQMDWSKKNEL
amount precipitated relative to full-length EBP50 (1-358): 2.4 times
